Data published in patent publication US20120316071A1 (published 2012).
Each block holds one binder with its values, some of them ahead of it.

Columns and labels:
[1] = target: T1, rHuman Erythropoietin R/Fc Chimera, CF (R&D Systems Cat#963-ER) (human, UniProt P19235 25-250); assay: Multispot ECL (MSD) assay, antigen spotted on plate, Fab at 1.56 µM; blank spot 4357
T1 construct: Bought recombinant protein; also called EPO R/Fc; Epo R; Fc part of the bought chimera not given
T1 sequence (looked up): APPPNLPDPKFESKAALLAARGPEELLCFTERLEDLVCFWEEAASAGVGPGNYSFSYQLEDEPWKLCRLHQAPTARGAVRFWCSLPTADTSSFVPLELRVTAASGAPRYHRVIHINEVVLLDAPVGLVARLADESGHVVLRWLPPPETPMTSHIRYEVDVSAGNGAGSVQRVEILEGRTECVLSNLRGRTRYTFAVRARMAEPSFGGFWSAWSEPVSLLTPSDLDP

[2] = target: T2, rHuman CD44/Fc Chimera, CF (R&D Systems Cat#3660-CD) (human, UniProt P16070 21-220); assay: as above
T2 construct: Bought recombinant protein; Fc part of the bought chimera not given

[3] = target: T3, rHuman EGF R/Fc Chimera, CF (R&D Systems Cat#344-ER) (human, UniProt P00533 25-645); assay: as above
T3 construct: Bought recombinant protein; also called epidermal growth factor receptor (EGF R); Fc part of the bought chimera not given

[4] = target: T4, rHuman P-Cadherin/Fc Chimera, CF (R&D Systems Cat#861-PC) (human, UniProt P22223 108-654); assay: as above
T4 construct: Bought recombinant protein; Fc part of the bought chimera not given

[5] = target: T5, Recombinant Human DLL4 (R&D Systems Cat#1506-D4/CF) (human, UniProt Q9NR61 27-524); assay: as above
T5 construct: Bought recombinant protein; also called delta-like protein 4; rHuman DLL4

[6] = target: T6, rHuman ErbB2/Fc Chimera, CF (R&D Systems Cat#1129-ER) (human, UniProt P04626 23-652); assay: as above
T6 construct: Bought recombinant protein; also called human epidermal growth factor 2 receptor (ErbB2); Fc part of the bought chimera not given

[7] = target: T7, rHuman HGF R/c-MET/Fc Chimera, CF (R&D Systems Cat#358-MT/CF) (human, UniProt P08581 25-932); assay: as above
T7 construct: Bought recombinant protein; also called HGF R/Fc; hepatocyte growth factor receptor (HGF R/c-Met); Fc part of the bought chimera not given

[8] = target: T8, rHuman Notch-1/Fc Chimera, CF (R&D Systems Cat#3647-TK) (human, UniProt P46531 19-526); assay: as above
T8 construct: Bought recombinant protein; Fc part of the bought chimera not given

[9] = target: T9, rHuman Notch-1/Fc Chimera, CF (R&D Systems Cat#3647-TK) (human, UniProt P46531 19-526); assay: MSD multispot ECL, antigen spotted on plate, Fab 88.1 nM; blank spot 301
T9 construct: Bought from R&D Systems; not shown: Fc of the bought chimera

[10] = target: T10, rHuman ErbB2/Fc Chimera, CF (R&D Systems Cat#1129-ER) (human, UniProt P04626 23-652); assay: as above
T10 construct: Bought from R&D Systems; also called human epidermal growth factor 2 receptor (ErbB2); not shown: Fc of the bought chimera

[11] = target: T11, rHuman IGF-1 sR, (IGF-1 sR), CF (R&D Systems Cat#391-GR) (human, UniProt P08069 31-932); assay: as above
T11 construct: Bought from R&D Systems and called a soluble receptor; also called insulin-like growth factor-1 soluble receptor

[12] = target: T12, rHuman HGF R/c-MET/Fc Chimera, CF (R&D Systems Cat#358-MT/CF) (human, UniProt P08581 25-932); assay: as above
T12 construct: Bought from R&D Systems; also called HGF R/Fc; hepatocyte growth factor receptor (HGF R/c-Met); not shown: Fc of the bought chimera

[13] = target: T13, rHuman P-Cadherin/Fc Chimera, CF (R&D Systems Cat#861-PC) (human, UniProt P22223 108-654); assay: as above
T13 construct: Bought from R&D Systems; not shown: Fc of the bought chimera

[14] = target: T14, rHuman EGF R/Fc Chimera, CF (R&D Systems Cat#344-ER) (human, UniProt P00533 25-645); assay: as above
T14 construct: Bought from R&D Systems; also called epidermal growth factor receptor (EGF R); not shown: Fc of the bought chimera

[15] = target: T15, rHuman Erythropoietin R/Fc Chimera, CF (R&D Systems Cat#963-ER) (human, UniProt P19235 25-250); assay: as above
T15 construct: Bought from R&D Systems; also called EPO R/Fc; Epo R/Fc chimera; not shown: Fc of the bought chimera
T15 sequence (looked up): T1 sequence (looked up)

[16] = target: T16, Recombinant Human DLL4 (R&D Systems Cat#1506-D4/CF) (human, UniProt Q9NR61 27-524); assay: as above
T16 construct: Bought from R&D Systems; also called rHuman DLL4; delta-like protein 4

[17] = target: T17, rHuman CD44/Fc Chimera, CF (R&D Systems Cat#3660-CD) (human, UniProt P16070 21-220); assay: as above
T17 construct: Bought from R&D Systems; not shown: Fc of the bought chimera

ECL signal [1]: 9480 | ECL signal [2]: 7600 | ECL signal [3]: 7830 | ECL signal [4]: 15000 | ECL signal [5]: 10900 | ECL signal [6]: 7580 | ECL signal [7]: 10300 | ECL signal [8]: 9450
B1: Fab VH1-46_IGHD7-27*01_IGHJ2*01 & L6_IGKJ1*01 (Fab, V domains shown)
VH: QVQLVQSGAEVKKPGASVKVSCKASGYTFTSYYMHWVRQAPGQGLEWMGIINPSGGSTSYAQKFQGRVTMTRDTSTSTVYMELSSLRSEDTAVYYCARANWGYWYFDLWGRGTLVTVSS
VL: not shown
notes: Germline Fab made in E. coli; VH was cloned in Plasmid A (CH1 constant region, His6 and Flag tags) and the kappa VL in Plasmid C (kappa CL); Only the variable domains are tied to this Fab by name

ECL signal [9]: 440 | ECL signal [10]: 200 | ECL signal [11]: 273 | ECL signal [12]: 392 | ECL signal [13]: 278 | ECL signal [14]: 376 | ECL signal [15]: 3370 | ECL signal [16]: 434 | ECL signal [17]: 340
B2: Fab VH1-46_IGHD3-10*01_IGHJ4*01 & B3_IGKJ1*01 (Fab, V domains shown)
VH: QVQLVQSGAEVKKPGASVKVSCKASGYTFTSYYMHWVRQAPGQGLEWMGIINPSGGSTSYAQKFQGRVTMTRDTSTSTVYMELSSLRSEDTAVYYCAREYYYGSGSYYNDYFDYWGQGTLVTVSS
VL: not shown
notes: Tested as a Fab made in E. coli; VH was cloned into Plasmid A (CH1 constant region, His6 and Flag tags); The kappa VL was cloned into Plasmid C (kappa CL)
